From patent US20060264369, “Aptamers to von Willebrand Factor and their use as thrombotic disease therapeutics” (published 2006)
Changes are numbered by the printed parent chain.

Columns and labels:
[1] = molecular target: T1, von Willebrand factor full length (Homo sapiens, UniProt P04275 SEQ:764-2813); assay: filter; 36% bound at 100 nM vWF; details: tags: Calbiochem 681300; label: 5'-32P
Experimental: (§1) For KD determination, chemically synthesized aptamers were purified using denaturing polyacrylamide gel electrophoresis, 5′end labeled with γ-³²P ATP and were tested for direct binding to full length human vWF (Calbiochem Cat.# 681300, La Jolla, Calif.). An 8 point protein titration was used in the dot blot binding assay (100 nM, 30 nM, 10 nM, 3 nM, 1 nM, 300 pM, 100 pM, 0 pM)) in 1× Dulbecco's PBS containing […] (final volume of 50 uL) for 30 minutes at room temperature. KD values were calculated by fitting the equation y=(max/(1+K/protein))+yint using KaleidaGraph (KaleidaGraph v. 3.51, Synergy Software).

[2] = molecular target: T1, von Willebrand factor full length; assay: filter; 47% bound at 100 nM vWF; details: tags: Calbiochem 681300; label: 5'-32P
Experimental: as §1

[3] = molecular target: T1, von Willebrand factor full length; assay: filter; 18% bound at 100 nM vWF; details: tags: Calbiochem 681300; label: 5'-32P
Experimental: as §1

[4] = molecular target: T1, von Willebrand factor full length; assay: filter; 39% bound at 100 nM vWF; details: tags: Calbiochem 681300; label: 5'-32P
Experimental: as §1

[5] = molecular target: T1, von Willebrand factor full length; assay: filter; 44% bound at 100 nM; details: tags: Calbiochem 681300
Experimental: as §1

[6] = molecular target: T1, von Willebrand factor full length; assay: filter; 55% bound at 100 nM; details: tags: Calbiochem 681300
Experimental: as §1

[7] = molecular target: T1, von Willebrand factor full length; assay: filter; 56% bound at 100 nM vWF; details: tags: Calbiochem 681300; label: 5'-32P
Experimental: as §1

[8] = molecular target: T1, von Willebrand factor full length; assay: filter; 28% bound at 100 nM vWF; details: tags: Calbiochem 681300; label: 5'-32P
Experimental: as §1

[9] = molecular target: T1, von Willebrand factor full length; assay: filter; only 6% bound at 100 nM vWF; details: tags: Calbiochem 681300; label: 5'-32P
Experimental: as §1

[10] = molecular target: T1, von Willebrand factor full length; assay: filter; 43% bound at 100 nM vWF; details: tags: Calbiochem 681300; label: 5'-32P
Experimental: as §1

[11] = molecular target: T1, von Willebrand factor full length; assay: filter; only 2% bound at 100 nM vWF; details: tags: Calbiochem 681300; label: 5'-32P
Experimental: as §1

[12] = molecular target: T1, von Willebrand factor full length; assay: filter; 50% bound at 100 nM vWF; details: tags: Calbiochem 681300; label: 5'-32P
Experimental: as §1

[13] = molecular target: T1, von Willebrand factor full length; assay: filter; 33% bound at 100 nM; details: tags: Calbiochem 681300
Experimental: as §1

[14] = molecular target: T1, von Willebrand factor full length; assay: filter; 9% bound at 100 nM vWF; details: tags: Calbiochem 681300; label: 5'-32P
Experimental: as §1

[15] = molecular target: T1, von Willebrand factor full length; assay: filter; 47% bound at 100 nM; details: tags: Calbiochem 681300
Experimental: as §1

[16] = molecular target: T1, von Willebrand factor full length; assay: filter; 37% bound at 100 nM vWF; details: tags: Calbiochem 681300; label: 5'-32P
Experimental: as §1

[17] = molecular target: T1, von Willebrand factor full length; assay: filter; 23% bound at 100 nM vWF; details: tags: Calbiochem 681300; label: 5'-32P
Experimental: as §1

[18] = molecular target: T1, von Willebrand factor full length; assay: filter; 16% bound at 100 nM vWF; details: tags: Calbiochem 681300; label: 5'-32P
Experimental: as §1

[19] = molecular target: T1, von Willebrand factor full length; assay: filter; 51% bound at 100 nM; details: tags: Calbiochem 681300
Experimental: as §1

[20] = molecular target: T1, von Willebrand factor full length; assay: filter; 33% bound at 100 nM vWF; details: tags: Calbiochem 681300; label: 5'-32P
Experimental: as §1

[21] = molecular target: T1, von Willebrand factor full length; assay: filter; 17% bound at 100 nM vWF; details: tags: Calbiochem 681300; label: 5'-32P
Experimental: as §1

[22] = molecular target: T1, von Willebrand factor full length; assay: filter; 29% bound at 100 nM vWF; details: tags: Calbiochem 681300; label: 5'-32P
Experimental: as §1

[23] = molecular target: T1, von Willebrand factor full length; assay: filter; 51% bound at 100 nM vWF; details: tags: Calbiochem 681300; label: 5'-32P
Experimental: as §1

[24] = molecular target: T1, von Willebrand factor full length; assay: filter; 29.0% bound at 100 nM vWF; details: tags: Calbiochem 681300; label: 5'-32P
Experimental: as §1

[25] = molecular target: T1, von Willebrand factor full length; assay: filter; 26.5% bound at 100 nM vWF; details: tags: Calbiochem 681300; label: 5'-32P
Experimental: as §1

[26] = molecular target: T1, von Willebrand factor full length; assay: filter; 38.5% bound at 100 nM vWF; details: tags: Calbiochem 681300; label: 5'-32P
Experimental: as §1

[27] = molecular target: T1, von Willebrand factor full length; assay: filter; 38.2% bound at 100 nM vWF; details: tags: Calbiochem 681300; label: 5'-32P
Experimental: as §1

[28] = molecular target: T1, von Willebrand factor full length; assay: filter; 22.6% bound at 100 nM vWF; details: tags: Calbiochem 681300; label: 5'-32P
Experimental: as §1

[29] = molecular target: T1, von Willebrand factor full length; assay: filter; 19.2% bound at 100 nM vWF; details: tags: Calbiochem 681300; label: 5'-32P
Experimental: as §1

[30] = molecular target: T1, von Willebrand factor full length; assay: flow; range 1.3-370 nM; details: tags: Calbiochem 681300
Experimental: Aptamer potency to block human vWF binding to lyophilized platelets was assessed by flow cytometric analysis. Titrations of aptamers (0 nM, 0.1 nM to 1000 nM) were pre-incubated briefly with 5 nM of full length human vWF in FACS buffer (PBS plus 0.5% bovine serum albumin) at room temperature in a volume of 50 uL. Another 50 uL containing 5 uL of lyophilized platelets plus 1 uL of 0.1 U/uL of botrocetin in FACS buffer was added to aptamer/vWF. This reaction was allowed to proceed for 15 minutes at 37 degrees C. after which 200 uL of FACS buffer was added. […] The pellets were resuspended in 100 uL of FACS buffer containing a 1:100 dilution of anti-vWF antibody and were incubated at room temperature for 30 minutes. […] The pellets were resuspended in a 1:100 solution of anti-IgG2a-FITC antibody and were incubated in the dark for 30 minutes at room temperature. The entire 100 uL was diluted into 200 uL of FACS buffer and analyzed immediately by flow cytometric analysis in the FACSCAN. […] Mean fluorescent intensity (“MFI”) readings were quantified for each sample analyzed by flow cytometry. […] IC₅₀ values were determined by fitting the percent inhibition of vWF binding to platelets as a function of aptamer concentration to the equation: % inhibition=% inhibitionₘₐₓ/(1+IC₅₀/aptamer conc.)

B1: ARC1115 (ssDNA)
DNA: GGCGTGCAGTGCCTTCGGCCGTGCGGTGCCTCCGTCACGCC
Kd [1]: 2 nM

B2: ARC1224 (ssDNA)
DNA: B1 DNA with T31U
modifications: 2'-OMe U31, 3'-idT
Kd [2]: 0.5 nM

B3: ARC1217 (ssDNA)
DNA: B1 DNA
modifications: 2'-OMe C24, 3'-idT
Kd [3]: 14 nM

B4: ARC1339 (mixed)
mixed: B1 DNA with T10U, T35U
modifications: 2'-OMe at 9, 10, 21, 23, 34-36, 3'-idT
Kd [4]: 2.4 nM

B5: ARC1209 (ssDNA)
DNA: B1 DNA
modifications: 2'-OMe at 16; 3'-idT
Kd [5]: 2 nM

B6: ARC1195 (ssDNA)
DNA: B1 DNA
modifications: 2'-OMe at 2; 3'-idT
Kd [6]: 1 nM

B7: ARC1202 (ssDNA)
DNA: B1 DNA
modifications: 2'-OMe G9, 3'-idT
Kd [7]: 0.4 nM

B8: ARC1199 (ssDNA)
DNA: B1 DNA
modifications: 2'-OMe G6, 3'-idT
Kd [8]: 19 nM

B9: ARC1201 (ssDNA)
DNA: B1 DNA
modifications: 2'-OMe A8, 3'-idT
Kd [9]: 0.9 nM

B10: ARC1340 (mixed)
mixed: B1 DNA with T31U, T35U
modifications: 2'-OMe at 23, 28, 29, 31, 34-36, 3'-idT
Kd [10]: 7.4 nM

B11: ARC1218 (ssDNA)
DNA: B1 DNA
modifications: 2'-OMe G25, 3'-idT
Kd [11]: 32 nM

B12: ARC1198 (ssDNA)
DNA: B1 DNA with T5U
modifications: 2'-OMe U5, 3'-idT
Kd [12]: 0.9 nM

B13: ARC1219 (ssDNA)
DNA: B1 DNA
modifications: 2'-OMe at 26; 3'-idT
Kd [13]: 3 nM

B14: ARC1237 (mixed)
mixed: B1 DNA with T5U
modifications: 2'-OMe at 1-6 and 36-41, 3'-idT
Kd [14]: 41 nM

B15: ARC1211 (ssDNA)
DNA: B1 DNA
modifications: 2'-OMe at 18; 3'-idT
Kd [15]: 2 nM

B16: ARC1172 (ssDNA)
DNA: B1 DNA
modifications: 3'-idT
Kd [16]: 2 nM

B17: ARC1235 (mixed)
DNA: B1 DNA
modifications: 2'-OMe G1 G2 G4 G6 A37 G39, 3'-idT
Kd [17]: 13 nM

B18: ARC1225 (ssDNA)
DNA: B1 DNA
modifications: 2'-OMe C32, 3'-idT
Kd [18]: 11 nM

B19: ARC1232 (ssDNA)
DNA: B1 DNA
modifications: 2'-OMe at 39; 3'-idT
Kd [19]: 1 nM

B20: ARC1342 (mixed)
mixed: GGCGUGCAGUGCCUUCGGCCGTGCGGTGCCUCCGUCACGCC
modifications: 2'-OMe/deoxy composite as printed in Table 22, 3'-idT
Kd [20]: 15.6 nM

B21: ARC1344 (mixed)
mixed: B20 mixed
modifications: 2'-OMe/deoxy composite with multiple PS as printed in Table 22, 3'-idT
Kd [21]: 4.8 nM

B22: ARC1345 (mixed)
mixed: B20 mixed
modifications: 2'-OMe/deoxy composite with PS 5' of the deoxy residues as printed in Table 22, 3'-idT
Kd [22]: 12.1 nM

B23: ARC1346 (mixed)
mixed: GCGUGCAGUGCCUUCGGCCGTGCGGTGCCUCCGUCACGC
modifications: 2'-OMe/deoxy composite, 3'-idT
Kd [23]: 11 nM

B24: ARC1526 (mixed)
mixed: B23 mixed with C15U
modifications: 2'-OMe/deoxy composite, single PS, 3'-idT
Kd [24]: 47 nM

B25: ARC1524 (mixed)
mixed: B23 mixed
modifications: 2'-OMe/deoxy composite, single PS between mG20 and dT21, 3'-idT
Kd [25]: 5.7 nM

B26: ARC1361 (mixed)
mixed: B23 mixed
modifications: 2'-OMe/deoxy composite, 3'-idT
Kd [26]: 7.9 nM

B27: ARC1368 (mixed)
mixed: B23 mixed
modifications: 2'-OMe/deoxy composite, single PS between mG20 and dT21, 3'-idT
Kd [27]: 1.8 nM

B28: ARC1529 (mixed)
mixed: CGUGCAGUGCCUUCGGCCGTGCGGTGCCUCCGUCACG
modifications: 2'-OMe/deoxy composite, single PS, 3'-idT
Kd [28]: 12.3 nM

B29: ARC1530 (mixed)
mixed: B28 mixed with C14U
modifications: 2'-OMe/deoxy composite, single PS, 3'-idT
Kd [29]: 15 nM

B30: rRdY minimer SEQ 201 (mixed)
DNA: GGAGCCACACGACATTGGCGCGAGAGCGCATGGCTCC
modifications: ribo purines, deoxy pyrimidines
IC50 [30]: 150 nM
